Laboratory results published in patent US20240082313A1, “PHARMACEUTICAL COMPOSITIONS AND THEIR METHODS OF USE” (The Trustees of Indiana University, priority 2021, published 2024).

Legend:
[1] = tested on: EO771 mammary tumor cells; assay: EdU assay; format: cell-based, mouse; settings: inhibitor applied with iTS CM
Experimental: (§1) EdU assays. Two thousand cells were seeded in 96-well plates on day 1, CM was added on day 2, and cellular proliferation was examined using a fluorescence-based cell proliferation kit (CLICK-IT™ EdU ALEXA FLUOR™ 488 Imaging Kit; Thermo-Fisher, Waltham, MA, USA). After fluorescent labeling, the number of fluorescently labeled cells were counted and the ratio to the total number of cells was determined.
(§2) EdU assay. Using a procedure previously reported, approximately 1,000 cells were seeded in 96-well plates on day 1. CM was added on day 2 and cellular proliferation was examined with a fluorescence-based cell proliferation kit (CLICK-IT™ EdU ALEXA FLUOR™ 488 Imaging Kit; Thermo-Fisher, Waltham, MA, USA) on day 4. After fluorescent labeling, the number of fluorescently labeled cells was counted and the ratio to the total number of cells was determined.

[2] = tested on: EO771 mammary tumor cells; assay: TRANSWELL invasion assay; format: cell-based, mouse; settings: inhibitor applied with iTS CM
Experimental: (§3) Invasion assay. The invasion capacity of cancer cells was determined using a 24-well plate, TRANSWELL® chambers (Thermo Fisher Scientific, Waltham, MA, USA) with […] pore size and MATRIGEL™. Cell invasion was measured in TRANSWELL® chambers with a coating including MATRIGEL™ (100 μg/ml). The cells in 200 μL serum-free DMEM were placed on the upper chamber and 800 μL iTS CM was added in the lower chamber. After 24 h, the cells that had invaded the lower side of the membrane were stained with Crystal Violet. At least five randomly chosen images were taken under a microscope, and the average number of stained cells that represented the relative invasion was determined.

[3] = tested on: 4T1.2 mouse mammary tumor cells; assay: Tumor selectivity from MTT-based viability (tumor vs non-tumor cells); format: cell-based
Source text: (§4) Variations in tumor selectivity among the predicted tumor-suppressing proteins. Tumor-suppressing proteins may inhibit the progression of tumor cells but not inhibit the progression of non-tumor cells. Using the MTT-based viability, tumor selectivity was defined as a ratio of (reduction in MTT-based viability of tumor cells) to (reduction in MTT-based viability of non-tumor cells). The tumor selectivity may be above one to remove tumor cells and a larger value may signify a reduction in the inhibition of the growth of non-tumor cells. The tumor selectivity was determined using three tumor cells (4T1.2 mouse mammary tumor cells, EO771 mammary tumor cells, and MDA-MB-231 breast cancer cells) and three non-tumor cells (adipose cells, MLO-A5 osteocytes, and murine MSCs). […] Table 2 provides the tumor selectivity of 4T1.2 Oct4 CM, 4T1.2 c-Myc CM, and 10 tumor-suppressing protein candidates.

[4] = tested on: EO771 mammary tumor cells; assay: as above; format: cell-based, mouse; settings: tumor cells EO
Source text: as §4

[5] = tested on: MDA-MB-231 breast cancer cells; assay: as above; format: cell-based, human
Source text: as §4

4T1.2 cells [6] = assay: TRANSWELL invasion assay; format: cell-based, mouse
Experimental: TRANSWELL® invasion assay. In a TRANSWELL® invasion assay, approximately 5×10^4 cells in 200 μL serum-free DMEM were placed on the upper TRANSWELL® chamber (Thermo Fisher Scientific, Waltham, MA, USA) with MATRIGEL™ (100 μg/ml), and 800 μL of CM was added in the lower chamber. After 48 h, the cells that had invaded the lower side of the membrane were stained with Crystal Violet. At least five randomly chosen images were taken, and the average number of stained cells was determined.

4T1.2 cells [7] = assay: Western blot analysis; format: cell-based, mouse; settings: for level of Kdm3a: 4T1.2 cells; for Lrp5, MMP9, Runx2, TGFβ, and Snail: recombinant protein applied extracellularly to 4T1.2 cells
Experimental: Western blot analysis. Cultured cells were lysed in a radio-immunoprecipitation assay (RIPA) buffer and proteins were fractionated by 10-15% SDS gels and electro-transferred to polyvinylidene difluoride (PVDF) transfer membranes (Millipore, Billerica, MA, USA). The membrane was incubated overnight with primary antibodies and then with secondary antibodies conjugated with horseradish peroxidase (Cell Signaling, Danvers, MA, USA). Antibodies against c-Myc, Oct4, Sox2, Klf4, Lrp5, Runx2, Snail, TGFβ, Eno1, Eef2, vinculin (Cell Signaling, Danvers, MA, USA), MMP9, NFATc1, cathepsin K (Santa Cruz, Dallas, TX, USA), TRAIL (Novus, Centennial, CO, USA), p53 (Invitrogen, Carlsbad, CA, USA), Hsp90ab1 (Abcam, Cambridge, UK), Kdm3a (Thermo-Fisher Scientific, Waltham, MA, USA) and β-actin as a control (Sigma, St. Louis, MO, USA) were employed. The level of proteins was determined using a SUPERSIGNAL™ west femto maximum sensitivity substrate (Thermo-Fisher Scientific, Waltham, MA, USA), and a luminescent image analyzer (LAS-3000, Fuji Film, Tokyo, Japan) was used to quantify signal intensities.

adipose-derived MSCs = assay: MTT-based viability of non-tumor cells; format: cell-based, human
Source text: as §4

[8] = tested on: EO771 mammary tumor cells; assay: Wound-healing scratch assay; format: cell-based, mouse; settings: EO771 cells
Experimental: Two-dimensional motility assay. A wound-healing scratch motility assay was performed to measure 2-dimensional cell motility. Cells were seeded in 12-well plates, after cell attachment, a plastic pipette tip was used to scratch a gap on the cell layer. Images of the cell-free scratch zone were obtained via an inverted microscope at 0 h, and the areas newly occupied with cells were determined 48 h after scratching. The areas were quantified with Image J (National Institutes of Health, Maryland, USA).
Scratch assay. A wound-healing scratch assay was conducted to evaluate 2-dimensional migratory behavior. Approximately 4×10^5 cells were seeded in 12-well plates. After cell attachment, a plastic pipette tip was used to scratch a gap on the cell layer. After the removal of the floating cells, CM was added. Images of the cell-free scratch zone were collected at 0 h, and the areas newly occupied with cells were determined 24-48 h after scratching. The areas were quantified with IMAGE J™ (National Institutes of Health, Bethesda, MD, USA).

EO771 tumor cells = assay: MTT-based viability; format: cell-based, mouse
[9] = tested on: TRAMP prostate tumor cells; assay: EdU assay; format: cell-based; settings: EdU-based
Experimental: as §1

[10] = tested on: TRAMP prostate tumor cells; assay: TRANSWELL invasion assay; format: cell-based
Experimental: as §3

[11] = tested on: PANC-1 pancreatic tumor cells; assay: EdU assay; format: cell-based, human; settings: PANC-1 cells, EdU-based
Experimental: as §1

[12] = tested on: PANC-1 pancreatic tumor cells; assay: TRANSWELL invasion assay; format: cell-based, human; settings: PANC-1 cells
Experimental: as §3

EO771 cells = assay: Western blot analysis; format: cell-based, mouse
Experimental: Western blot analysis. Cultured cells were lysed in a radio-immunoprecipitation assay buffer with protease inhibitors (Santa Cruz Biotechnology, Santa Cruz, CA, USA) and phosphatase inhibitors (Calbiochem, Billerica, MA, USA). After cell lysis, proteins were fractionated by 10-15% SDS gels and electro-transferred to polyvinylidene difluoride (“PVDF”) transfer membranes (Millipore, Billerica, MA, USA). After blocking 1 h with a blocking buffer (Bio-Rad), the membrane was incubated overnight with primary antibodies and then with secondary antibodies conjugated with horseradish peroxidase for 45 min (Cell Signaling, Danvers, MA, USA). Antibodies against β-catenin, cleaved-caspase 3, Runx2, Snail, Enolase-1 (Cell Signaling, Danvers, MA, USA), MMP9 (Santa Cruz, Dallas, TX, USA), TRAIL (Novus, Centennial, CO, USA), p53 (Invitrogen, Carlsbad, CA, USA), and β-actin as a control (Sigma, St. Louis, MO, USA), were employed. The level of proteins was determined using a SUPERSIGNAL™ west femto maximum sensitivity substrate (Thermo Scientific, Waltham, MA, USA), and a luminescent image analyzer (LAS-3000, Fuji Film, Tokyo, Japan) was used to quantify signal intensities.

4T1.2 cells [13] = assay: EdU assay; format: cell-based, mouse
Experimental: as §2

Molecule	Tumor selectivity ([3]; non-tumor cells A5)	Tumor selectivity ([3]; non-tumor cells MSC)	Tumor selectivity ([4]; non-tumor cells A5)	Tumor selectivity ([4]; non-tumor cells MSC)	Tumor selectivity ([5]; non-tumor cells A5)	Tumor selectivity ([5]; non-tumor cells MSC)	TRANSWELL invasion (4T1.2 cells [6])	level of Kdm3a (4T1.2 cells [7])	Lrp5, MMP9, Runx2, TGFβ, and Snail (4T1.2 cells [7])	MTT-based viability of non-tumor cells (adipose-derived MSCs)	EdU-based proliferation (4T1.2 cells [13])	further results
Nc1cccc2c1C(=O)N(C1CCC(=O)NC1=O)C2=O (centres unmarked) [Pomalidomide]	–	–	–	–	–	–	–	–	–	–	–	inhibitory effect of β-catenin-overexpressing iTS CM on proliferation [1]: interfered with the inhibitory effect; inhibitory effect of β-catenin-overexpressing iTS CM on invasion [2]: interfered with the inhibitory effect
Hsp90ab1: heat shock protein 90 alpha family class B member 1 recombinant protein	1.68	2.86	1.55	2.65	1.02	1.74	reduced	reduced	downregulated	elevated	–	–
enolase 1: enolase 1 recombinant protein (protein, UniProt P17182 2-434, looked up) Alpha-enolase: SILRIHAREIFDSRGNPTVEVDLYTAKGLFRAAVPSGASTGIYEALELRDNDKTRFMGKGVSQAVEHINKTIAPALVSKKVNVVEQEKIDKLMIEMDGTENKSKFGANAILGVSLAVCKAGAVEKGVPLYRHIADLAGNPEVILPVPAFNVINGGSHAGNKLAMQEFMILPVGASSFREAMRIGAEVYHNLKNVIKEKYGKDATNVGDEGGFAPNILENKEALELLKTAIAKAGYTDQVVIGMDVAASEFYRSGKYDLDFKSPDDPSRYITPDQLADLYKSFVQNYPVVSIEDPFDQDDWGAWQKFTASAGIQVVGDDLTVTNPKRIAKAASEKSCNCLLLKVNQIGSVTESLQACKLAQSNGWGVMVSHRSGETEDTFIADLVVGLCTGQIKTGAPCRSERLAKYNQILRIEEELGSKAKFAGRSFRNPLAK	1.48	3.30	3.29	7.34	3.11	6.94	reduced	reduced	downregulated	elevated	reduced	scratch-based migration [8]: inhibited; MTT-based viability (EO771 tumor cells): significant decrease; proliferation [9]: inhibited; invasion [10]: inhibited; proliferation [11]: inhibited; invasion [12]: inhibited; expression of MMP9, Runx2, and Snail (EO771 cells): reduced; expression of p53 and TRAIL (EO771 cells): elevated
vinculin: vinculin recombinant protein (protein, UniProt Q64727 1-1066, looked up) Vinculin: MPVFHTRTIESILEPVAQQISHLVIMHEEGEVDGKAIPDLTAPVAAVQAAVSNLVRVGKETVQTTEDQILKRDMPPAFIKVENACTKLVQAAQMLQSDPYSVPARDYLIDGSRGILSGTSDLLLTFDEAEVRKIIRVCKGILEYLTVAEVVETMEDLVTYTKNLGPGMTKMAKMIDERQQELTHQEHRVMLVNSMNTVKELLPVLISAMKIFVTTKNSKNQGIEEALKNRNFTVEKMSAEINEIIRVLQLTSWDEDAWASKDTEAMKRALASIDSKLNQAKGWLRDPNASPGDAGEQAIRQILDEAGKVGELCAGKERREILGTCKMLGQMTDQVADLRARGQGASPVAMQKAQQVSQGLDVLTAKVENAARKLEAMTNSKQSIAKKIDAAQNWLADPNGGPEGEEQIRGALAEARKIAELCDDPKERDDILRSLGEIAALTSKLGDLRRQGKGDSPEARALAKQVATALQNLQTKTNRAVANSRPAKAAVHLEGKIEQAQRWIDNPTVDDRGVGQAAIRGLVAEGHRLANVMMGPYRQDLLAKCDRVDQLTAQLADLAARGEGESPQARALASQLQDSLKDLKAQMQEAMTQEVSDVFSDTTTPIKLLAVAATAPPDAPNREEVFDERAANFENHSGRLGATAEKAAAVGTANKSTVEGIQASVKTARELTPQVISAARILLRNPGNQAAYEHFETMKNQWIDNVEKMTGLVDEAIDTKSLLDASEEAIKKDLDKCKVAMANIQPQMLVAGATSIARRANRILLVAKREVENSEDPKFREAVKAASDELSKTISPMVMDAKAVAGNISDPGLQKSFLDSGYRILGAVAKVREAFQPQEPDFPPPPPDLEQLRLTDELAPPKPPLPEGEVPPPRPPPPEEKDEEFPEQKAGEVINQPMMMAARQLHDEARKWSSKGNDIIAAAKRMALLMAEMSRLVRGGSGTKRALIQCAKDIAKASDEVTRLAKEVAKQCTDKRIRTNLLQVCERIPTISTQLKILSTVKATMLGRTNISDEESEQATEMLVHNAQNLMQSVKETVREAEAASIKIRTDAGFTLRWVRKTPWYQ	0.99	1.57	0.67	0.89	1.13	1.43	reduced	reduced	downregulated	–	reduced	Tumor selectivity ([3]; non-tumor cells Adipose): 1.43; Tumor selectivity ([4]; non-tumor cells Adipose): 1.27; Tumor selectivity ([5]; non-tumor cells Adipose): 1.88
